Values joined by “and” are separate entries in the source; they are usually repeats but may differ in a detail not shown here. Equal entries are not always repeated.
T1: CD226 (human) (UniProt Q15762)
T1 sequence: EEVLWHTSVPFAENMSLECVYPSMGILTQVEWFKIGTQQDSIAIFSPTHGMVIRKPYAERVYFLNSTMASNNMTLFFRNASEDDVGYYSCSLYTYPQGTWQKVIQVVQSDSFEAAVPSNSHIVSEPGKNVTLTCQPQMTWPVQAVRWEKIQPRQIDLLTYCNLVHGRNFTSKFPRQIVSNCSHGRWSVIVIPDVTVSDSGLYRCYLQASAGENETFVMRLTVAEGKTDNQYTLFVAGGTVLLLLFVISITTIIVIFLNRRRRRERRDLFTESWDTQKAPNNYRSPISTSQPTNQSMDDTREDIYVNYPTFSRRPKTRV

T2: CD96 (UniProt P40200)
T2 sequence (looked up): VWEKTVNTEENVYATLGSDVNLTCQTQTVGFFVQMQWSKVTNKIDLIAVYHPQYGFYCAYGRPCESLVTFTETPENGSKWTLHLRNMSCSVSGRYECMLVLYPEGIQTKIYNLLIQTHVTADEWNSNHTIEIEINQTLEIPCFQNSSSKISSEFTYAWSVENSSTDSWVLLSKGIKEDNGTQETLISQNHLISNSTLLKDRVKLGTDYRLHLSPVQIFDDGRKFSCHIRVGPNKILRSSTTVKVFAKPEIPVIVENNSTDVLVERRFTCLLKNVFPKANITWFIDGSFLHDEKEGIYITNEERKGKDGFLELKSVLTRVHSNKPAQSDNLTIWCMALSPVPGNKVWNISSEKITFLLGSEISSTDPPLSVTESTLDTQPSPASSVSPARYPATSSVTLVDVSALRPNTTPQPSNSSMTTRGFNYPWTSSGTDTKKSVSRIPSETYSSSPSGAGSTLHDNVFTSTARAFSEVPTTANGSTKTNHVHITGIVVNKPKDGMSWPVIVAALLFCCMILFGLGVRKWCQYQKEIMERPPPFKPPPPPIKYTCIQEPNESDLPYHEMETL


Experiments:
CD226 (human) [1] = target: T1, CD226 (human); experiment: flow cytometry, CD226-expressing cells
CD226 (human) [2] = target: T1, CD226 (human); experiment: flow cytometry, transfected cells
CD96 = target: T2, CD96; experiment: flow cytometry, cells
[3] = target: PD-1 (Homo sapiens (Human)) (UniProt Q15116); experiment: flow cytometry, Jurkat/PD-1 cells
Chain of PD-1 (Homo sapiens (Human)) (Q15116 21-288 limits assumed): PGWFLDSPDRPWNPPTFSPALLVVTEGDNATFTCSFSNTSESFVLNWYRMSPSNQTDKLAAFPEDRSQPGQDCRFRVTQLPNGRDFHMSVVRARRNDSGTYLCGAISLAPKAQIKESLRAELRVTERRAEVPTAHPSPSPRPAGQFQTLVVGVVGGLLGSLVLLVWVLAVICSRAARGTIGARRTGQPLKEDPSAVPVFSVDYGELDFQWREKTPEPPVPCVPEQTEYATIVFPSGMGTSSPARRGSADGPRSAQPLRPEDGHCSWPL

[4] = target: PD-1 (Homo sapiens (Human)) (UniProt Q15116); experiment: flow cytometry, Jurkat/PD-1 cells; vs wildtype PD-L2 IgV-Fc

Binder	MFI at 50 nM [3]	Fold increase over wildtype PD-L2 IgV-Fc [4]	further results
CD155 variant IgV-Fc P18F, S65A, S67V, F91S, L104M, G111R (Fc fusion, not shown: a dimerising Fc or GST; small tags and cut ends) WPPPGTGDVVVQAPTQVFGFLGDSVTLPCYLQVPNMEVTHVSQLTWARHGESGSMAVFHQTQGPAYVESKRLEFVAARLGAELRNASLRMSGLRVEDEGNYTCMFVTFPQRSRSVDIWL			Fold Change from CD155-ECD (CD226 (human) [1]): 0.06 fold; MFI at 11.1 nM (CD226 (human) [1]): 901 MFI
CD155 variant IgV-Fc P18F, L79P, M90L, F91S, V95A, L104M, G111R (Fc fusion, not shown: a dimerising Fc or GST; small tags and cut ends) WPPPGTGDVVVQAPTQVFGFLGDSVTLPCYLQVPNMEVTHVSQLTWARHGESGSMAVFHQTQGPSYSESKRLEFVAARPGAELRNASLRLSGLRAEDEGNYTCMFVTFPQRSRSVDIWL			Fold Change from CD155-ECD (CD226 (human) [1]): 0.06 fold and 0.07 fold; MFI at 11.1 nM (CD226 (human) [1]): 917 MFI and 1070 MFI
CD155 variant IgV-Fc P18C, T26M, L44V, M55I, Q62K, L79P, F91S, L104M, T107M (Fc fusion, not shown: a dimerising Fc or GST; small tags and cut ends) WPPPGTGDVVVQAPTQVCGFLGDSVMLPCYLQVPNMEVTHVSQVTWARHGESGSIAVFHQTKGPSYSESKRLEFVAARPGAELRNASLRMSGLRVEDEGNYTCMFVMFPQGSRSVDIWL			Fold Change from CD155-ECD (CD226 (human) [1]): 0.06 fold; MFI at 11.1 nM (CD226 (human) [1]): 973 MFI
CD155 variant IgV-Fc V9L, P18L, L79P, M90I, F91S, T102S, L104M, G111R (Fc fusion, not shown: a dimerising Fc or GST; small tags and cut ends) WPPPGTGDLVVQAPTQVLGFLGDSVTLPCYLQVPNMEVTHVSQLTWARHGESGSMAVFHQTQGPSYSESKRLEFVAARPGAELRNASLRISGLRVEDEGNYSCMFVTFPQRSRSVDIWL			Fold Change from CD155-ECD (CD226 (human) [1]): 0.06 fold; MFI at 11.1 nM (CD226 (human) [1]): 910 MFI
CD155 variant IgV-Fc V9I, P18T, D23G, L79P, F91S, G111R (Fc fusion, not shown: a dimerising Fc or GST; small tags and cut ends) WPPPGTGDIVVQAPTQVTGFLGGSVTLPCYLQVPNMEVTHVSQLTWARHGESGSMAVFHQTQGPSYSESKRLEFVAARPGAELRNASLRMSGLRVEDEGNYTCLFVTFPQRSRSVDIWL			Fold Change from CD155-ECD (CD226 (human) [1]): 0.06 fold; MFI at 11.1 nM (CD226 (human) [1]): 897 MFI
CD155 variant IgV-Fc P18T, D23G, S24A, N35D, H49L, L79P, F91S, L104M, G111R (Fc fusion, not shown: a dimerising Fc or GST; small tags and cut ends) PGTGDVVVQAPTQVTGFLGGAVTLPCYLQVPDMEVTHVSQLTWARLGESGSMAVFHQTQGPSYSESKRLEFVAARPGAELRNASLRMSGLRVEDEGNYTCMFVTFPQRSRSVDIWL			MFI at 11.1 nM (CD226 (human) [1]): 987 MFI
CD155 P18S, P64S, F91S IgV-Fc (Fc fusion, not shown: a dimerising Fc or GST; small tags and cut ends) PGTGDVVVQAPTQVSGFLGDSVTLPCYLQVPNMEVTHVSQLTWARHGESGSMAVFHQTQGSSYSESKRLEFVAARLGAELRNASLRMSGLRVEDEGNYTCLFVTFPQGSRSVDIWL			MFI (CD226 (human) [2]): 498000; MFI (CD96): 140000
CD155 A56V IgV-Fc (Fc fusion, not shown: a dimerising Fc or GST; small tags and cut ends) PGTGDVVVQAPTQVPGFLGDSVTLPCYLQVPNMEVTHVSQLTWARHGESGSMVVFHQTQGPSYSESKRLEFVAARLGAELRNASLRMFGLRVEDEGNYTCLFVTFPQGSRSVDIWL			MFI (CD226 (human) [2]): 455000; MFI (CD96): 161000
CD155 L44P IgV-Fc (Fc fusion, not shown: a dimerising Fc or GST; small tags and cut ends) PGTGDVVVQAPTQVPGFLGDSVTLPCYLQVPNMEVTHVSQPTWARHGESGSMAVFHQTQGPSYSESKRLEFVAARLGAELRNASLRMFGLRVEDEGNYTCLFVTFPQGSRSVDIWL			MFI (CD226 (human) [2]): 581000; MFI (CD96): 152000
CD155 P18S, F91S, L104P IgV-Fc (Fc fusion, not shown: a dimerising Fc or GST; small tags and cut ends) PGTGDVVVQAPTQVSGFLGDSVTLPCYLQVPNMEVTHVSQLTWARHGESGSMAVFHQTQGPSYSESKRLEFVAARLGAELRNASLRMSGLRVEDEGNYTCPFVTFPQGSRSVDIWL			MFI (CD226 (human) [2]): 26200; MFI (CD96): 10900
CD155 P18T, S42P, F91S IgV-Fc (Fc fusion, not shown: a dimerising Fc or GST; small tags and cut ends) PGTGDVVVQAPTQVTGFLGDSVTLPCYLQVPNMEVTHVPQLTWARHGESGSMAVFHQTQGPSYSESKRLEFVAARLGAELRNASLRMSGLRVEDEGNYTCLFVTFPQGSRSVDIWL			MFI (CD226 (human) [2]): 554000; MFI (CD96): 135000
CD155 P18T, F91S IgV-Fc (Fc fusion, not shown: a dimerising Fc or GST; small tags and cut ends) PGTGDVVVQAPTQVTGFLGDSVTLPCYLQVPNMEVTHVSQLTWARHGESGSMAVFHQTQGPSYSESKRLEFVAARLGAELRNASLRMSGLRVEDEGNYTCLFVTFPQGSRSVDIWL			MFI (CD226 (human) [2]): 401000; MFI (CD96): 158000
variant PD-L2 IgV-Fc E44D, S67L, Q72H, Q82R, V89D (Fc fusion, not shown: a dimerising Fc or GST; small tags and cut ends) FTVTVPKELYIIEHGSNVTLECNFDTGSHVNLGAITASLQKVDNDTSPHRERATLLEEQLPLGKALFHIPHVQVRDEGQYRCIIIYGDAWDYKYLTLK	51500	5.23 fold	
variant PD-L2 IgV-Fc H15Q, T47A, H69L, Q82R, V89D (Fc fusion, not shown: a dimerising Fc or GST; small tags and cut ends) FTVTVPKELYIIEQGSNVTLECNFDTGSHVNLGAITASLQKVENDASPHRERATLLEEQLPLGKASFLIPQVQVRDEGQYRCIIIYGDAWDYKYLTLK	65600	6.66 fold	
variant PD-L2 IgV-Fc H15Q, T47A (Fc fusion, not shown: a dimerising Fc or GST; small tags and cut ends) FTVTVPKELYIIEQGSNVTLECNFDTGSHVNLGAITASLQKVENDASPHRERATLLEEQLPLGKASFHIPQVQVRDEGQYQCIIIYGVAWDYKYLTLK	26600	2.7 fold	

More lines, main results first:

MFI at 50 nM [3]	Fold increase over wildtype PD-L2 IgV-Fc [4]	Binder	further results
68000	6.91 fold	variant PD-L2 IgV-Fc I13V, H15Q, V31A, N45S, Q82R, V89D (Fc fusion, not shown: a dimerising Fc or GST; small tags and cut ends) FTVTVPKELYIVEQGSNVTLECNFDTGSHANLGAITASLQKVESDTSPHRERATLLEEQLPLGKASFHIPQVQVRDEGQYRCIIIYGDAWDYKYLTLK	
61200	6.22 fold	variant PD-L2 IgV-Fc I12V, I13V, H15Q, T47A, Q82R, V89D (Fc fusion, not shown: a dimerising Fc or GST; small tags and cut ends) FTVTVPKELYVVEQGSNVTLECNFDTGSHVNLGAITASLQKVENDASPHRERATLLEEQLPLGKASFHIPQVQVRDEGQYRCIIIYGDAWDYKYLTLK	
49500	5.03 fold	variant PD-L2 IgV-Fc I13V, H15Q, Q82R, V89D (Fc fusion, not shown: a dimerising Fc or GST; small tags and cut ends) FTVTVPKELYIVEQGSNVTLECNFDTGSHVNLGAITASLQKVENDTSPHRERATLLEEQLPLGKASFHIPQVQVRDEGQYRCIIIYGDAWDYKYLTLK	
54300	5.52 fold	variant PD-L2 IgV-Fc I13V, H15Q, T47A, H69L, R76G, V89D (Fc fusion, not shown: a dimerising Fc or GST; small tags and cut ends) FTVTVPKELYIVEQGSNVTLECNFDTGSHVNLGAITASLQKVENDASPHRERATLLEEQLPLGKASFLIPQVQVGDEGQYQCIIIYGDAWDYKYLTLK	
76100	7.74 fold	variant PD-L2 IgV-Fc I13V, H15Q, Q82R (Fc fusion, not shown: a dimerising Fc or GST; small tags and cut ends) FTVTVPKELYIVEQGSNVTLECNFDTGSHVNLGAITASLQKVENDTSPHRERATLLEEQLPLGKASFHIPQVQVRDEGQYRCIIIYGVAWDYKYLTLK	
67400	6.85 fold	variant PD-L2 IgV-Fc H15Q, V31M, S67L, Q82R, V89D (Fc fusion, not shown: a dimerising Fc or GST; small tags and cut ends) FTVTVPKELYIIEQGSNVTLECNFDTGSHMNLGAITASLQKVENDTSPHRERATLLEEQLPLGKALFHIPQVQVRDEGQYRCIIIYGDAWDYKYLTLK	
33100	3.36 fold	variant PD-L2 IgV-Fc I13V, H15Q, R76G, D77N, Q82R, V89D (Fc fusion, not shown: a dimerising Fc or GST; small tags and cut ends) FTVTVPKELYIVEQGSNVTLECNFDTGSHVNLGAITASLQKVENDTSPHRERATLLEEQLPLGKASFHIPQVQVGNEGQYRCIIIYGDAWDYKYLTLK	
89100	9.05 fold	variant PD-L2 IgV-Fc I13V, H15Q, T47A, Q82R (Fc fusion, not shown: a dimerising Fc or GST; small tags and cut ends) FTVTVPKELYIVEQGSNVTLECNFDTGSHVNLGAITASLQKVENDASPHRERATLLEEQLPLGKASFHIPQVQVRDEGQYRCIIIYGVAWDYKYLTLK	
28700	2.92 fold	variant PD-L2 IgV-Fc I13V, H15Q, V89D (Fc fusion, not shown: a dimerising Fc or GST; small tags and cut ends) FTVTVPKELYIVEQGSNVTLECNFDTGSHVNLGAITASLQKVENDTSPHRERATLLEEQLPLGKASFHIPQVQVRDEGQYQCIIIYGDAWDYKYLTLK	
59000	5.99 fold	variant PD-L2 IgV-Fc I13V, S67L, Q82R, V89D (Fc fusion, not shown: a dimerising Fc or GST; small tags and cut ends) FTVTVPKELYIVEHGSNVTLECNFDTGSHVNLGAITASLQKVENDTSPHRERATLLEEQLPLGKALFHIPQVQVRDEGQYRCIIIYGDAWDYKYLTLK	
17700	1.8 fold	variant PD-L2 IgV-Fc H15Q, V89D (Fc fusion, not shown: a dimerising Fc or GST; small tags and cut ends) FTVTVPKELYIIEQGSNVTLECNFDTGSHVNLGAITASLQKVENDTSPHRERATLLEEQLPLGKASFHIPQVQVRDEGQYQCIIIYGDAWDYKYLTLK	
63300	6.43 fold	variant PD-L2 IgV-Fc I13V, H15Q, T47A, Q82R, V89D (SEQ ID NO 1544) (Fc fusion, not shown: a dimerising Fc or GST; small tags and cut ends) FTVTVPKELYIVEQGSNVTLECNFDTGSHVNLGAITASLQKVENDASPHRERATLLEEQLPLGKASFHIPQVQVRDEGQYRCIIIYGDAWDYKYLTLK	

— patent US20200040059A1
